Experimental data published in patent US20030207290A1.
Where “and” joins values, the source holds several entries; their conditions need not be identical. Equal values may be shown once. Read-outs that look alike come from different tables or passages of the source.

What was measured:
[1] = molecular target: T1, EGFR-pY1068 phosphopeptide, LPVPE(p)…; assay: ECL 7-spot plate screen, peptide-BSA spot, biotinylated TnT protein, Ru-streptavidin; signal normalized in two steps
T1 sequence (peptide, phosphotyrosine at (p)Y (residue 6 of the printed peptide; EGFR Tyr1068)): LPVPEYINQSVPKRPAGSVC

[2] = molecular target: EGFR-pY1148 phosphopeptide, …(p)…; assay: as above
[3] = molecular target: EGFR-pY992 phosphopeptide, DADE(p)…; assay: as above
BSA (control coating) = BSA (control coating) (UniProt P02769); assay: ECL plate binding assay: BSA control on electrode, biotinylated TnT protein, Sulfo-TAG streptavidin
[4] = molecular target: IkBa phosphopeptide (IkBa-24pp), …(p)SGLD(p)SMKDEEYC; assay: ECL plate binding assay: peptide-BSA on electrode, biotinylated TnT protein, Sulfo-TAG streptavidin
[5] = molecular target: c-Myc phosphopeptide (Myc-p58Tp62S), …(p)TPPL(p)SPSRRSGL; assay: as above
[6] = molecular target: T1, EGFR-pY1068 phosphopeptide, LPVPE(p)…; assay: ECL 4-spot multi-array binding assay: peptide-BSA spot, biotinylated TnT protein, Sulfo-TAG streptavidin
[7] = molecular target: EGFR-pY1148 phosphopeptide, …(p)…; assay: as above
[8] = molecular target: EGFR-pY992 phosphopeptide, DADE(p)…; assay: as above
[9] = molecular target: IkBa phosphopeptide (IkBa-24pp), …(p)SGLD(p)SMKDEEYC; assay: as above
[10] = molecular target: IkBa phosphopeptide (IkBa-24pp), …(p)SGLD(p)SMKDEEYC; assay: ECL 4-spot multi-array binding assay: peptide-BSA spot
[11] = molecular target: c-Myc phosphopeptide (Myc-p58Tp62S), …(p)TPPL(p)SPSRRSGL; assay: ECL 7-spot plate screen, peptide-BSA spot, biotinylated TnT protein, Ru-streptavidin; signal normalized in two steps
[12] = molecular target: IkBa phosphopeptide (IkBa-24pp), …(p)SGLD(p)SMKDEEYC; assay: as above
[13] = molecular target: phosphorylated EGFR (Sigma Chemical Co, self-phosphorylated) (UniProt P00533); assay: TnT protein on streptavidin plate, […] phosphorylated EGFR; bound EGFR detected with TAG-labeled anti-EGFR (clone 225)
[14] = molecular target: phosphorylated EGFR (Sigma Chemical Co, self-phosphorylated) (UniProt P00533); assay: TnT protein on streptavidin plate, […] phosphorylated EGFR; bound EGFR detected by its kinase activity on pEY, 1 hr reaction
[15] = molecular target: phosphorylated EGFR (Sigma Chemical Co, self-phosphorylated) (UniProt P00533); assay: TnT protein on streptavidin plate, […] phosphorylated EGFR; bound EGFR detected by its kinase activity on pEY, 12 hr reaction

c-Myc phosphopeptide (Myc-p58Tp62S), …(p)TPPL(p)SPSRRSGL, sequence (peptide, as listed by the source): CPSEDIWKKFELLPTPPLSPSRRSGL
BSA (control coating), sequence (P02769 25-607 limits assumed): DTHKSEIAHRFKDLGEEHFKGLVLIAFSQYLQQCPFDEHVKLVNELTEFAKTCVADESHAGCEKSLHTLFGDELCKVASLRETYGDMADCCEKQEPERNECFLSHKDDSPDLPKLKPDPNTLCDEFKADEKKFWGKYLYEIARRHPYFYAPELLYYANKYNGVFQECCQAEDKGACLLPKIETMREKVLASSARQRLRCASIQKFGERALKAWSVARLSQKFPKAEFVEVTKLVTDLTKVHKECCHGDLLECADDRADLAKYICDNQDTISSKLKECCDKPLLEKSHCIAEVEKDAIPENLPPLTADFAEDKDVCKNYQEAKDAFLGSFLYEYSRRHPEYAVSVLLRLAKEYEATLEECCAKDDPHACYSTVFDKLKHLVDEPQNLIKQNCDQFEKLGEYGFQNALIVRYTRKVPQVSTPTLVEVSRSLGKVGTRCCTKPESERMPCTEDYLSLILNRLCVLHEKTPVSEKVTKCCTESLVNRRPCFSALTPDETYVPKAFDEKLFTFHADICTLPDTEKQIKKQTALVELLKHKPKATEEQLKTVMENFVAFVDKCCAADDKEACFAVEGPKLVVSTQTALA
IkBa phosphopeptide (IkBa-24pp), …(p)SGLD(p)SMKDEEYC, sequence (peptide, as listed by the source): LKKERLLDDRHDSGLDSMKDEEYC
EGFR-pY992 phosphopeptide, DADE(p)…, sequence (peptide, as listed by the source): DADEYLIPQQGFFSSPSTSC
βTRCP1 (EST clone IMAGE 3491843), in vitro translated, biotin-labelled, sequence (Q9Y297 whole entry): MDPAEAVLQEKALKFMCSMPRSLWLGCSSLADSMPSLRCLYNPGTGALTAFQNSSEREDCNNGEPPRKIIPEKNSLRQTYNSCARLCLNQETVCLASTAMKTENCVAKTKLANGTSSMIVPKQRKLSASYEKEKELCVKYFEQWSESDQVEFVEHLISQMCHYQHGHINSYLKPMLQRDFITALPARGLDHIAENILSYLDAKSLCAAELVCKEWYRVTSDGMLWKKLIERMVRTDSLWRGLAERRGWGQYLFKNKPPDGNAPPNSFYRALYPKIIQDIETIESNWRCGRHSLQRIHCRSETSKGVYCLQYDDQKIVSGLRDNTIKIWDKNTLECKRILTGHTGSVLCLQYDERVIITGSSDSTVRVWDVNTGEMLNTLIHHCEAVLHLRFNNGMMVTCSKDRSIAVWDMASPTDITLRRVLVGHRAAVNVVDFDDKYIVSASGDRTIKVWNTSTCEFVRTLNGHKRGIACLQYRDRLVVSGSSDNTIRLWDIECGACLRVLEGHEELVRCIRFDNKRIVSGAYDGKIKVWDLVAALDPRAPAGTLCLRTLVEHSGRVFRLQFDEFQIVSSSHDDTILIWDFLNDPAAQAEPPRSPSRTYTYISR
βTRCP2 (EST clone IMAGE 4237375), in vitro translated, biotin-labelled, sequence (Q9UKB1 whole entry): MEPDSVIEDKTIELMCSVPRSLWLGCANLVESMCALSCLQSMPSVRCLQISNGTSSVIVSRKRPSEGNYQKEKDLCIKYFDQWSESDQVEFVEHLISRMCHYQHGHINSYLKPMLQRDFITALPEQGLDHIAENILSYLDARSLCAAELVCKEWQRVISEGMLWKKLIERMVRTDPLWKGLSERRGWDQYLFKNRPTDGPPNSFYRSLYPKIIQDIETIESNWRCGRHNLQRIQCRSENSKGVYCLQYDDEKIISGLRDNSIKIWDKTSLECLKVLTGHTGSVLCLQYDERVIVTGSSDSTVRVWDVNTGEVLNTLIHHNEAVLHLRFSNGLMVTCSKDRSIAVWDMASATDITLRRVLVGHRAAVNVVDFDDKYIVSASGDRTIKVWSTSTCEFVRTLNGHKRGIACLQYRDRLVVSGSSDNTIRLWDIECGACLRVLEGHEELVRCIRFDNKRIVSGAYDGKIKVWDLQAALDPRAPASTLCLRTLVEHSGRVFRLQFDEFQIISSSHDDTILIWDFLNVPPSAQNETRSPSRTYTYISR

Substance: Shc (EST clone IMAGE 3911953), in vitro translated, biotin-labelled (from UniProt P29353 1-473)
- normalized ECL signal [1]: 1
- normalized ECL signal [2]: 3
- normalized ECL signal [3]: 1

Substance: mCBP (EST clone IMAGE 3872466), in vitro translated, biotin-labelled
- Average ECL signal (BSA (control coating)): 352 ECL signal
- Average ECL signal [4]: 371 ECL signal
- Average ECL signal [5]: 351 ECL signal
- ECL signal [6]: 126 ECL signal
- ECL signal [7]: 278 ECL signal
- ECL signal [8]: 498 ECL signal
- ECL signal [9]: 446 ECL signal

Substance: βTRCP2 (EST clone IMAGE 4237375), in vitro translated, biotin-labelled (from UniProt Q9UKB1 1-542)
- fold ECL signal over TnT reaction without exogenous DNA [10]: 100 fold
- Average ECL signal (BSA (control coating)): 672 ECL signal
- Average ECL signal [4]: 21500 ECL signal
- Average ECL signal [5]: 896 ECL signal
- ECL signal [6]: 24 ECL signal
- ECL signal [7]: 35 ECL signal
- ECL signal [9]: 5040 ECL signal
- normalized ECL signal [2]: 1
- normalized ECL signal [11]: 10

Substance: βTRCP1 (EST clone IMAGE 3491843), in vitro translated, biotin-labelled (from UniProt Q9Y297 1-605)
- fold ECL signal over TnT reaction without exogenous DNA [10]: 100 fold
- Average ECL signal (BSA (control coating)): 1720 ECL signal
- Average ECL signal [4]: 40900 ECL signal
- Average ECL signal [5]: 2120 ECL signal
- ECL signal [6]: 24 ECL signal
- ECL signal [7]: 36 ECL signal
- ECL signal [9]: 2470 ECL signal
- normalized ECL signal [2]: 1
- normalized ECL signal [12]: 12
- normalized ECL signal ([12]; positive control preparation): 23
- normalized ECL signal [11]: 8 and 4

Substance: Phospholipase C gamma 1 (PLCγ) (EST clone IMAGE 4419252), in vitro translated, biotin-labelled (from UniProt P19174 1-1290) (enzyme)
- ECL signal [6]: 1480 ECL signal
- ECL signal [7]: 110 ECL signal
- ECL signal [8]: 1400 ECL signal
- normalized ECL signal [1]: 55
- normalized ECL signal [2]: 4
- normalized ECL signal [3]: 10
- ECL signal [13]: 30400 ECL signal
- ECL signal [14]: 18000 ECL signal
- ECL signal [15]: 39800 ECL signal

Substance: Shc (EST clone IMAGE 3914467), in vitro translated, biotin-labelled (from UniProt P29353 1-473)
- normalized ECL signal [1]: 1
- normalized ECL signal [2]: 3
- normalized ECL signal [3]: 1

Substance: Shc (EST clone IMAGE 3909921), in vitro translated, biotin-labelled (from UniProt P29353 1-473)
- normalized ECL signal [1]: 1
- normalized ECL signal [2]: 5
- normalized ECL signal [3]: 1

Substance: Shc (EST clone IMAGE 3909654), in vitro translated, biotin-labelled (from UniProt P29353 1-473)
- normalized ECL signal [1]: 1
- normalized ECL signal [2]: 3
- normalized ECL signal [3]: 1
